Experimental data as given in paper PMC10897365, “Molecular mechanism of allosteric activation of the CRISPR ribonuclease Csm6 by cyclic tetra-adenylate” (The EMBO Journal, 2023).

Key:
[1] = target: T1, TtCsm6 (Thermus thermophilus, UniProt Q53W17); assay: crystal structure […] Å (co-crystallised with cA4); assay type: binding; conditions: post-cleavage state; two A2>P across the CARF dimer interface; pH 8.5, Mg2+ in crystal
T1 construct: gene csm6; synthesized gene, N-terminal 6xHis tag removed with PreScission protease; expressed in E. coli Rosetta (DE3); homodimer; CARF-HTH-HEPN
T1 sequence (Q53W17 1-464): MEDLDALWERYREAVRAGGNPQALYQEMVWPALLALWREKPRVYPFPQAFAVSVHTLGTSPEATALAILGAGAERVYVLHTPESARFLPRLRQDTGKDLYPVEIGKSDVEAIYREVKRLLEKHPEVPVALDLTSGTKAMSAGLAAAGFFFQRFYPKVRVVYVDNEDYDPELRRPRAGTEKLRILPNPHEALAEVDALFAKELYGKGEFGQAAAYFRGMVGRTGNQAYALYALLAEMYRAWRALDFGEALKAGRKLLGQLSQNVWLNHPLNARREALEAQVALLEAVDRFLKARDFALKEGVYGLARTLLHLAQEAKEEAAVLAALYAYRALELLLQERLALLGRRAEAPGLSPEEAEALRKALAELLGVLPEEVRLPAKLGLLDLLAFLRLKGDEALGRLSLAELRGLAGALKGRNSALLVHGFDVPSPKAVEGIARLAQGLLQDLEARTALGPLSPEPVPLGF

[2] = target: the molecule itself; assay: crystal structure; TtCsm6 (12 mg/mL) pre-incubated with cA4 1:1.2 for 3 h at room temperature; hanging drop, 25 °C; post-cleavage state with two A2>P bound; homodimer
[3] = target: the molecule itself; assay: crystal structure; TtCsm6 K137A (13 mg/mL) alone; hanging drop, 25 °C; apo state, no metal ion in the HEPN domain; homodimer
[4] = target: the molecule itself; assay: crystal structure; TtCsm6 Y161A (10 mg/ml) pre-incubated with cA4 1:1.2 at 4 °C for 30 min; hanging drop, 25 °C; pre-cleavage state with cA4 bound; homodimer

## Nc1ncnc2c1ncn2[C@@H]1O[C@H](CO)[C@@H](OP(=O)(O)OC[C@H]2O[C@@H](n3cnc4c(N)ncnc43)[C@@H]3OP(=O)(O)O[C@@H]32)[C@H]1O [A2 > P]
[1]
  crystal structure 1.81 Å (co-crystallised with cA4): cA4 in the CARF domain was cleaved into two A2 > P molecules

B1: Thermus thermophilus (Tt) Csm6, wild type (enzyme)
chain: MEDLDALWERYREAVRAGGNPQALYQEMVWPALLALWREKPRVYPFPQAFAVSVHTLGTSPEATALAILGAGAERVYVLHTPESARFLPRLRQDTGKDLYPVEIGKSDVEAIYREVKRLLEKHPEVPVALDLTSGTKAMSAGLAAAGFFFQRFYPKVRVVYVDNEDYDPELRRPRAGTEKLRILPNPHEALAEVDALFAKELYGKGEFGQAAAYFRGMVGRTGNQAYALYALLAEMYRAWRALDFGEALKAGRKLLGQLSQNVWLNHPLNARREALEAQVALLEAVDRFLKARDFALKEGVYGLARTLLHLAQEAKEEAAVLAALYAYRALELLLQERLALLGRRAEAPGLSPEEAEALRKALAELLGVLPEEVRLPAKLGLLDLLAFLRLKGDEALGRLSLAELRGLAGALKGRNSALLVHGFDVPSPKAVEGIARLAQGLLQDLEARTALGPLSPEPVPLGF
notes: Csm6 of Thermus thermophilus, GenBank ID 81626039; synthesized cDNA in a modified pET vector; Crystallised after pre-incubation with cA4, which was cleaved to two A2>P in the crystal (post-cleavage state); Homodimer in the crystal; also called WT; source: E. coli Rosetta (DE3), purified (Ni-NTA, 15Q, Superdex 200); not shown: His6, N-terminal, cleaved
[2]
  binding result: binds

B2: TtCsm6 K137A mutant (enzyme, Thermus thermophilus)
chain: MEDLDALWERYREAVRAGGNPQALYQEMVWPALLALWREKPRVYPFPQAFAVSVHTLGTSPEATALAILGAGAERVYVLHTPESARFLPRLRQDTGKDLYPVEIGKSDVEAIYREVKRLLEKHPEVPVALDLTSGTAAMSAGLAAAGFFFQRFYPKVRVVYVDNEDYDPELRRPRAGTEKLRILPNPHEALAEVDALFAKELYGKGEFGQAAAYFRGMVGRTGNQAYALYALLAEMYRAWRALDFGEALKAGRKLLGQLSQNVWLNHPLNARREALEAQVALLEAVDRFLKARDFALKEGVYGLARTLLHLAQEAKEEAAVLAALYAYRALELLLQERLALLGRRAEAPGLSPEEAEALRKALAELLGVLPEEVRLPAKLGLLDLLAFLRLKGDEALGRLSLAELRGLAGALKGRNSALLVHGFDVPSPKAVEGIARLAQGLLQDLEARTALGPLSPEPVPLGF
notes: Csm6 of Thermus thermophilus, GenBank ID 81626039, with K137A; Homodimer in the crystal; also called apo-TtCsm6 (Ni-free structure); source: E. coli Rosetta (DE3), purified (Ni-NTA, 15Q, Superdex 200); not shown: His6, N-terminal, cleaved
[3]
  binding result: binds

B3: TtCsm6 Y161A mutant (enzyme, Thermus thermophilus)
chain: MEDLDALWERYREAVRAGGNPQALYQEMVWPALLALWREKPRVYPFPQAFAVSVHTLGTSPEATALAILGAGAERVYVLHTPESARFLPRLRQDTGKDLYPVEIGKSDVEAIYREVKRLLEKHPEVPVALDLTSGTKAMSAGLAAAGFFFQRFYPKVRVVAVDNEDYDPELRRPRAGTEKLRILPNPHEALAEVDALFAKELYGKGEFGQAAAYFRGMVGRTGNQAYALYALLAEMYRAWRALDFGEALKAGRKLLGQLSQNVWLNHPLNARREALEAQVALLEAVDRFLKARDFALKEGVYGLARTLLHLAQEAKEEAAVLAALYAYRALELLLQERLALLGRRAEAPGLSPEEAEALRKALAELLGVLPEEVRLPAKLGLLDLLAFLRLKGDEALGRLSLAELRGLAGALKGRNSALLVHGFDVPSPKAVEGIARLAQGLLQDLEARTALGPLSPEPVPLGF
notes: Csm6 of Thermus thermophilus, GenBank ID 81626039, with Y161A; Crystallised with uncleaved cA4 (pre-cleavage state); Homodimer in the crystal; source: E. coli Rosetta (DE3), purified (Ni-NTA, 15Q, Superdex 200); not shown: His6, N-terminal, cleaved
[4]
  binding result: binds
